# Data from US20170306346.
# Molecular target: GST-MYC2-HA (UniProt Q39204)
# Sequence (Q39204 whole entry): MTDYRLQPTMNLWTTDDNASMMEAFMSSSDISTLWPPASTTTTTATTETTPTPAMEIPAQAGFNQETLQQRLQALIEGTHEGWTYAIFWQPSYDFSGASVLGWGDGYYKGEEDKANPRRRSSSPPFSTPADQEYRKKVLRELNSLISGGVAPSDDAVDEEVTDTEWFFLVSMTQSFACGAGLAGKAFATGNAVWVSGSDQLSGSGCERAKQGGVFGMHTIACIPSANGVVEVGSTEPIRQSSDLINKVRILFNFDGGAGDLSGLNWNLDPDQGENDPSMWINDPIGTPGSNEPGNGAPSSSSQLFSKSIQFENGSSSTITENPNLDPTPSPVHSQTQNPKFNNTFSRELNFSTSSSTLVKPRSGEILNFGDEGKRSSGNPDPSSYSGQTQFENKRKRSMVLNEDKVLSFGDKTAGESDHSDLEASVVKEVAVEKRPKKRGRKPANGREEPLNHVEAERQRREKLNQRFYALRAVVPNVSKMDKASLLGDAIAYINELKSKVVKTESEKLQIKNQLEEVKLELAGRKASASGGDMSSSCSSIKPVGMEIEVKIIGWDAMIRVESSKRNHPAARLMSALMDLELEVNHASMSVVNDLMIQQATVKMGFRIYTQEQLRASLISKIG
substance,measurement,value
MBP-PUB11 (C247A)-myc,"in vitro ubiquitination of MYC2 (E1, E2, Ub; Western blot)",MBP-PUB11 (C247A)-myc mutant protein has no E3 activity for GST-MYC-HA
